Tests used:
[1] = biological target: T1, GST-USP7-murine TRAF WT (murine, UniProt Q6A4J8 1-208); experiment: pull-down; settings: both partners purified
T1 construct: also called GST-mUSP7-TRAF WT; murine USP7-TRAF

[2] = biological target: T2, Recombinant USP7-TRAF protein (human, UniProt Q93009 1-208); experiment: SPR; Biacore T200; USP7-TRAF immobilised on a CM5 chip by amine coupling to about 8000 RU; gradient concentrations of peptides injected at 30 μL/min; running buffer 0.05% (v/v) Tween 20 in PBS; settings: both partners purified
T2 construct: also called USP7-TRAF domain

[3] = biological target: T2, Recombinant USP7-TRAF protein; experiment: SPR; settings: both partners purified
[4] = biological target: USP7 (endogenous in SLK.iBAC-GFP cells) (human (endogenous in SLK.iBAC-GFP), UniProt Q93009 1-1102); experiment: cell-based or functional assay
Sequence of USP7 (endogenous in SLK.iBAC-GFP cells) (Q93009 whole entry): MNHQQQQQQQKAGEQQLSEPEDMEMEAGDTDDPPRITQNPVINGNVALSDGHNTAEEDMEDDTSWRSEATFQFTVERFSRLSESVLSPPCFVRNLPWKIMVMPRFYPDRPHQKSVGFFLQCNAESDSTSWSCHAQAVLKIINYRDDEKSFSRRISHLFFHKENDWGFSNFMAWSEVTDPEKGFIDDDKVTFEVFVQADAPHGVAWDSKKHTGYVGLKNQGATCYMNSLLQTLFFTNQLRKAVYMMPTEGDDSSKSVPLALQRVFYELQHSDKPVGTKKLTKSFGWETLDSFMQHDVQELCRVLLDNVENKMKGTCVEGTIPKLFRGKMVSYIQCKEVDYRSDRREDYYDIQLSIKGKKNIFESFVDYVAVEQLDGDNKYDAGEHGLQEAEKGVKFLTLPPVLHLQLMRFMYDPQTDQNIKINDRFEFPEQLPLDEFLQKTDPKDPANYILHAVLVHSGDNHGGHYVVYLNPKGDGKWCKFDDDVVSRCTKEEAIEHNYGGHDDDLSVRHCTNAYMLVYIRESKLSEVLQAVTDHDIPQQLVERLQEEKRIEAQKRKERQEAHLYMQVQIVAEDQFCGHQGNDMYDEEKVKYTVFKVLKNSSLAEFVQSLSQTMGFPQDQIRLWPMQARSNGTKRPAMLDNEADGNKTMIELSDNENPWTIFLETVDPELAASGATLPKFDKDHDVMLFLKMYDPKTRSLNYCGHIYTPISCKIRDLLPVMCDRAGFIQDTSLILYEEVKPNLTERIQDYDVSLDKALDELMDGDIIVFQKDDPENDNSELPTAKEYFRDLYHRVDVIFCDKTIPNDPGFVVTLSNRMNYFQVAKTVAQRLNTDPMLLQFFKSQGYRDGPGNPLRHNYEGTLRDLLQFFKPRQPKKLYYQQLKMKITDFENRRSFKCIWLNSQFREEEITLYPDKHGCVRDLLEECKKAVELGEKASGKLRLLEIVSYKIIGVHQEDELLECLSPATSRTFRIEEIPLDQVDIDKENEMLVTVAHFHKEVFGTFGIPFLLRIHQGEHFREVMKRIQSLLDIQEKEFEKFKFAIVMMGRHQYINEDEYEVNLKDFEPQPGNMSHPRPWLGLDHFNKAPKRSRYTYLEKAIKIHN

T2 sequence (Q93009 1-208): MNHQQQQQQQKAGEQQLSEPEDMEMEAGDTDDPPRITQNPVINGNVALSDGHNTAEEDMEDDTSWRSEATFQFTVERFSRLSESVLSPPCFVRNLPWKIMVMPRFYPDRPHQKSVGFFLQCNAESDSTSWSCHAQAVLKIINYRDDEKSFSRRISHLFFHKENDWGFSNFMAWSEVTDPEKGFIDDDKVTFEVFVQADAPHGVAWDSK
T1 sequence (Q6A4J8 1-208): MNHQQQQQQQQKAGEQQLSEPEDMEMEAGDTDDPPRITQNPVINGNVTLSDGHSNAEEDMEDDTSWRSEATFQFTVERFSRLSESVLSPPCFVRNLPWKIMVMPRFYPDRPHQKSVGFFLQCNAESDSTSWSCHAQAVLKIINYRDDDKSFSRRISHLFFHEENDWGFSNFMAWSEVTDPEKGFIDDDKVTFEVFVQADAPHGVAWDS

B1: p8-m (peptide)
peptide: Ac-YGRKKRRQRRRGGVSQSPSQNSN-NH2
notes: also called murine-derived p8
B1: binds [1].

B2: p2 (peptide)
peptide: Ac-EVADEDNSEI-NH2
notes: also called peptide p2
B2 showed a Kd [2] of 9.02 µM.

B3: p8 (peptide)
peptide: Ac-VNQSASQSSN-NH2
notes: also called peptide p8; human-derived p8
With B3 the Kd [3] was 3.16 µM.

B4: p8 fused to an N-terminal Tat(47-57) peptide via a GG linker (peptide)
peptide: Ac-YGRKKRRQRRRGGVNQSASQSSN-NH2
B4 was tested, and the “IC50 of inhibition of KSHV lytic reactivation in SLK.iBAC-GFP cells (blocks OTUD4-USP7)” value [4] was 52.6 µM.

— article PMC12047801 (PLOS Pathogens, 2025)
